Series [1] has as its target T1, GST::ETS-5 (Caenorhabditis elegans, UniProt Q18579 1-208).
T1 sequence: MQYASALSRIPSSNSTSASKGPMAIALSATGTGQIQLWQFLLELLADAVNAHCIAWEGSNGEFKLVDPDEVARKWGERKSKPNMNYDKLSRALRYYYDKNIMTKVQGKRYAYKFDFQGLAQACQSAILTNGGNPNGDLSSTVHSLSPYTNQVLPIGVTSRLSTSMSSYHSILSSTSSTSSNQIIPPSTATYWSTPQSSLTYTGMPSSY
Nature of the series: competition; scrambled competitor 10-500x molar excess over labeled N1; did not block; EMSA: 1 ug GST::ETS-5 or 2 ug GST, 0.1 pmol 3'-biotin duplex, room temperature 20 min, 6% polyacrylamide gel in 0.5x TBE; binding buffer, salt and pH not stated. The settings on record: protein: recombinant; tags: N-terminal GST (pGEX); label: unlabeled; blunt. In general terms: A gel shift assay detects complexes by their altered migration in electrophoresis.

Series [2] addresses T1, GST::ETS-5. Briefly: EMSA; also blocked by excess unlabeled probe (10-500x); EMSA: 1 ug GST::ETS-5 or 2 ug GST, 0.1 pmol 3'-biotin duplex, room temperature 20 min, 6% polyacrylamide gel in 0.5x TBE; binding buffer, salt and pH not stated. The note with it: protein: recombinant; tags: N-terminal GST (pGEX); label: 3'-biotin (labeled probe); blunt.

B1: scrambled competitor (dsDNA)
DNA 1: CTGACCCCGTGTCGCTAATAGACTCAGTTACGCAAGATGG
DNA 2: CCATCTTGCGTAACTGAGTCTATTAGCGACACGGGGTCAG
On to B1, for which the binding result with GST::ETS-5 [1] is on record as “no binding”.

B2: gcy-9 promoter ETS-site probe (45 bp) (dsDNA)
DNA 1: ATCCACTTCCGATGGGCCCTTCCGGCATGATAAGAAGTGAGTGGC
DNA 2: GCCACTCACTTCTTATCATGCCGGAAGGGCCCATCGGAAGTGGAT
Consider B2, for which, in the series with GST::ETS-5 [2], the binding result is reported as “binds”.

Source of the values: PMC3315506, “A Single Gene Target of an ETS-Family Transcription Factor Determines Neuronal CO2-Chemosensitivity”.
